Consider nine molecules from patent US20140322220A1 (Bayer, published 2014).

Numbering of substitutions follows the chain as printed. A value given as a limit tells only on which side of the number the result lay.

The labels stand for the following.
T1: hFGFR2β-Fc (IIIb) (human, UniProt P21802 22-377, biotinylated with biotin-LC-NHS)
T1 construct: also called FGFR2-2β Fc (IIIb)
T1 chain: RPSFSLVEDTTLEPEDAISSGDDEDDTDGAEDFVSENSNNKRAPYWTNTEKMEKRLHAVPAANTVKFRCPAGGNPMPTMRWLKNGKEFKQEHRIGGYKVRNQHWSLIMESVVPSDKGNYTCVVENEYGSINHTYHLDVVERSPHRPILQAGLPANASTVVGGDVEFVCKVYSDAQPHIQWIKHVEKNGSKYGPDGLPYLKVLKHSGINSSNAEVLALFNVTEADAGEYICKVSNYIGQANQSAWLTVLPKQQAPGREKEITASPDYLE

T2: hFGFR2α-Fc (IIIb) (human, UniProt P21802 22-377, biotinylated with biotin-LC-NHS)
T2 construct: Bought, R&D Systems 663-FR, soluble Fc fusion
T2 chain: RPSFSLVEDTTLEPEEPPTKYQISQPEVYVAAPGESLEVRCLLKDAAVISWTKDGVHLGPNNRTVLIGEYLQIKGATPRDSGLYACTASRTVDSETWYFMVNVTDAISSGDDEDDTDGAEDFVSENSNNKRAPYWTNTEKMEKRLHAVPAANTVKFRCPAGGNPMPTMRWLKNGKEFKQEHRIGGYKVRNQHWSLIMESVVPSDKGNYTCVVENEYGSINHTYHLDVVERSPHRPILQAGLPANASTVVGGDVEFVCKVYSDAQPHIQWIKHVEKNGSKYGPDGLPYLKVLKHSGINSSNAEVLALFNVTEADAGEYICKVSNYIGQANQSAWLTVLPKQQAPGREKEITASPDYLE

T3: hFGFR4-Fc (human, UniProt P22455 22-369, biotinylated with biotin-LC-NHS)
T3 construct: Bought, R&D Systems, printed Cat. No. 685-MF
T3 sequence (looked up): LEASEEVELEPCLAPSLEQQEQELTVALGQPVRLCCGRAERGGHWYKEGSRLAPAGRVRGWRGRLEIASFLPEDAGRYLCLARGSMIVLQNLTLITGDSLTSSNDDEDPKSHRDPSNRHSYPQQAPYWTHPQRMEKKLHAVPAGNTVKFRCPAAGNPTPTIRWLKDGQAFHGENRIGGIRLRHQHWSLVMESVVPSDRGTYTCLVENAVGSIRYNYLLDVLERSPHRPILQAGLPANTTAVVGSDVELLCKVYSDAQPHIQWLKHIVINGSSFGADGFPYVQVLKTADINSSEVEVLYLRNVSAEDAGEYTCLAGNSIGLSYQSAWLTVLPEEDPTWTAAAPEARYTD

T4: hFGFR1β-Fc (IIIc) (human, UniProt P11362-14 22-285, limits assumed, biotinylated with biotin-LC-NHS)
T4 construct: Bought, R&D Systems 661-FR
T4 sequence (looked up): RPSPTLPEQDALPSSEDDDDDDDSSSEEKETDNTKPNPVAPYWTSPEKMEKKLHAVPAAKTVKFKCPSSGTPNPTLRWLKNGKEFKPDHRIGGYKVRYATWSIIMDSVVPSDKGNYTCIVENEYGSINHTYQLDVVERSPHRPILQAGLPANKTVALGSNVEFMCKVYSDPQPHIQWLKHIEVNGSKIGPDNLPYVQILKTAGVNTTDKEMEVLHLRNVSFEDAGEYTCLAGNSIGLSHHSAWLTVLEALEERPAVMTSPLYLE

T5: hFGFR3-Fc (IIIb) (human, UniProt P22607-2 23-377, biotinylated with biotin-LC-NHS)
T5 construct: Bought, R&D Systems 1264-FR
T5 sequence (looked up): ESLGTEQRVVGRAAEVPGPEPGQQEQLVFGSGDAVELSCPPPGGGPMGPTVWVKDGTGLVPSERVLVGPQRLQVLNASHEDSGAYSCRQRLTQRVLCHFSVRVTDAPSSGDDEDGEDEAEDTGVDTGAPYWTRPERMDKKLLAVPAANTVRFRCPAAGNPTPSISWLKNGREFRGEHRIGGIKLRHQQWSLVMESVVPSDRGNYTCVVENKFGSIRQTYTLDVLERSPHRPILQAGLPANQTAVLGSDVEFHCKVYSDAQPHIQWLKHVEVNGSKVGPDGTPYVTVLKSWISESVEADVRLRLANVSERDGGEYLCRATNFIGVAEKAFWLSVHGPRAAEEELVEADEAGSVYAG

B1: TPP-1406 (antibody, human IgG1, lambda, V domains shown)
VH: EVQLLESGGGLVQPGGSLRLSCAASGFTFSHSGMHWVRQAPGKGLEWVAVISYDGSNKYYADSVKGRFTISRDNSKNTLYLQMNSLRAEDTAVYYCAREQPLYDFEYWGQGTLVTVSS
VL: AQSVLTQPPSASGTPGQRVTISCSGSSSNIGDNGVNWYQQLPGTAPKLLIYGASERPSGVPDRFSGSKSGTSASLAISGLRSEDEADYYCAAWDDSLDGWTFGGGTKLTVLG
notes: Matured variant of M047-D08
B2: TPP-1407 (antibody, human IgG1, lambda, V domains shown)
VH: B1 VH
VL: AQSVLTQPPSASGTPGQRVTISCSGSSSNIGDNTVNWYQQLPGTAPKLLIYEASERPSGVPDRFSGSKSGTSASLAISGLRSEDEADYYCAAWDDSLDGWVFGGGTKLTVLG
notes: Matured variant of M047-D08
B3: TPP-1410 (antibody, human IgG1, lambda, V domains shown)
VH: B1 VH with Q100A, L102G
VL: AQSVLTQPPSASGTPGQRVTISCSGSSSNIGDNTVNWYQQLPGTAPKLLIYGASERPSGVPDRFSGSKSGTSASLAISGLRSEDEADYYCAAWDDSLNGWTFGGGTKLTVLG
notes: Matured variant of M047-D08
B4: TPP-1412 (antibody, human IgG1, lambda, V domains shown)
VH: B1 VH with Q100A
VL: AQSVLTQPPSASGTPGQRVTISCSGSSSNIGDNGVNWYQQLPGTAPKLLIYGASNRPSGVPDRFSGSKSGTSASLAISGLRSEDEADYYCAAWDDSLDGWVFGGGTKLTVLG
notes: Matured variant of M047-D08
B5: TPP-1411 (antibody, human IgG1, lambda, V domains shown)
VH: B1 VH with L18M, H31S, L102G
VL: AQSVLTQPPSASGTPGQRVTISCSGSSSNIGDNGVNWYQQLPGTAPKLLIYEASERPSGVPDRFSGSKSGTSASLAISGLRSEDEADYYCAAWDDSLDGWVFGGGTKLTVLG
notes: Matured variant of M047-D08
B6: TPP-1409 (antibody, human IgG1, lambda, V domains shown)
VH: B1 VH with H31T, Q100S, L102G
VL: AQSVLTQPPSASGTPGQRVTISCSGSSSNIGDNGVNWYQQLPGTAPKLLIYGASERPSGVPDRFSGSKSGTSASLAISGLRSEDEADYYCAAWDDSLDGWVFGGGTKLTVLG
notes: Matured variant of M047-D08
B7: M054-A05 (soluble Fab) (Fab, V domains shown)
VH: EVQLLESGGGLVQPGGSLRLSCAASGFTFSNYGMYWVRQAPGKGLEWVAVISYDGTNKYYVDSVKGRFTISRDNSKNTLYLQMNSLRAEDTAVYYCAKDLPKWGGFDSWGQGTLVTVSS
VL: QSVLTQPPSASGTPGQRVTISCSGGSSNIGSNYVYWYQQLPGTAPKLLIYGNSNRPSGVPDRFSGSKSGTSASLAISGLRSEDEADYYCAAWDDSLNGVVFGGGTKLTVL
notes: Soluble Fab from E. coli, purified through its His-tag
B8: M021-H02 (soluble Fab) (Fab, V domains shown)
VH: EVQLLESGGGLVQPGGSLRLSCAASGFTFSNYGIHWVRQAPGKGLEWVAVISYDGSNKYYADSVKGRFTISRDNSKNTLYLQMNSLRAEDTAMYYCARDSSSAEDYWGQGTLVTVSS
VL: QSVLTQPPSASGTPGQRVTISCSGSSSNTGSNTVNWYQQLPGTAPKLLIYRNNQRPSGVPDRFSGSKSGTSASLAISGLRSEDEADYYCETWDSNTRGVVFGGGTKLTVL
notes: as for B7
B9: M048-D01 (soluble Fab) (Fab, V domains shown)
VH: EVQLLESGGGLVQPGGSLRLSCAASGFTFSSYAMSWVRQAPGKGLEWVSAISGSGTSTYYADSVKGRFTISRDNSKNTLYLQMNSLRAEDTAVYYCARVRYNWNHGDWFDPWGQGTLVTVSS
VL: QSVLTQPPSASGTPGQRVTISCSGSSSNIGNNYVSWYQQLPGTAPKLLIYENYNRPAGVPDRFSGSKSGTSASLAISGLRSEDEADYYCSSWDDSLNYWVFGGGTKLTVL
notes: as for B7

Broadly, the EC50 is the midpoint of the concentration-response curve.

T7 sequence (P21803 other isoform, or with tags, fused parts or gaps limits assumed): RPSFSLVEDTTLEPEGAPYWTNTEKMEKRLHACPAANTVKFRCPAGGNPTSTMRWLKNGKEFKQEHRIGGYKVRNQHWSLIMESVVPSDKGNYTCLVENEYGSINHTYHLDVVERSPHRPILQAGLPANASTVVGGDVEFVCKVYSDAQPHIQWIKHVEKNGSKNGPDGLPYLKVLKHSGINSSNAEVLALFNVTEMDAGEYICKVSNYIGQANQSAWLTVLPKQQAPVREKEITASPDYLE

For the first assay, the target named is T6, recombinant human FGFR2 (Met 1-Glu 377) with C-terminal polyhistidine tag (human, UniProt P21802 22-377).
T6 construct: The range is that of the expressed DNA and begins at Met 1; also called His-tagged FGFR2; recombinant human FGFR2-IIIc molecule
The experiment in a line: protein binding ELISA, antibody captured by anti-human IgG Fc, FGFR2-His titrated. From the text:
(§1) Two different types of ELISA were used to determine the binding improvement of mutated variants: a) Peptide Binding ELISA: a synthetic peptide comprising the amino acid sequence of the epitope linked C-terminally to a biotinylated lysine […]-Ttds-Lys(Biotin) (peptide sequence derived from SEQ ID NO:63, synthesized by JPT Peptide Technology GmbH, Berlin, Germany), and b) Recombinant Protein Binding ELISA: recombinant human FGFR2 (DNA sequence of human FGFR2 (NP 000132.3) Met 1-Glu 377, fused with a polyhistidine tag at the C-terminus; #10824-1-1081-1, Sin θ Biological Inc., Beijing, China).
(§2) Briefly, in both ELISA formats MTP plates (384 well Maxisorp, Nunc) were coated with 20 μl, anti-human IgG Fc specific (#12136; sigma) at 2.2 μg/ml for 2.5 h at 37° C. in coating buffer (#121125 Candor Bioscience GmbH). […] Anti-FGFR2 variants were immobilized in concentrations of 0.035 μg/ml (peptide based assay) or 0.2 μg/ml (recombinant human FGFR2 protein based assay) in 10% Smart Block in PBST depending on the format and variants to be analyzed by incubation of 20 μl for one hour at 20-22° C. After one washing step using 50 μl PBST, 20 μl quadruplets of the antigen dilution series in 10% SmartBlock in PBST with a maximum concentration of 100 nM were added and incubated for 1 h at 20-22° C. and the washing step was repeated 3 times. For the detection of the biotinylated epitope peptide 20 μl of streptavidine/POD conjugate (# S5512, Sigma) in a 1:1000 dilution in 10% SmartBlock in PBST were applied for one hour at 20-22° C. For the detection of the recombinant FGFR2 protein 20 μl of anti-His/HRP conjugate (#71840, novagen) in a 1:10000 dilution in 10% SmartBlock in PBST were applied for one hour at 20-22° C. After 3 washing steps 20 μl of 10 μM amplex red substrate (# A12222, Invitrogen) in 50 mM Sodium hydrogen phosphate, pH 7.6, were added and the fluorescence signal was detected using a common fluorescence reader, e.g. Tecan M1000. EC50 values were evaluated by fitting the data (Sigmoida) dose-response, variable slope, bottom set to background; GraphPad Prism software).
(An ELISA detects its analyte on a solid surface through an enzyme-linked reagent.)
Consider B1, for which the EC50 worked out at 0.22 nM.

For B2, the EC50 was found to be 0.23 nM.

For B3, the EC50 is 0.66 nM.

With B4, the EC50 amounted to 0.29 nM.

B5: the concentration for a half-maximal effect (EC50) turned out to be 0.61 nM.

As for B6, the concentration giving a half-maximal response (EC50) is 2.1 nM.

Another assay deals with T1, hFGFR2β-Fc (IIIb). The experiment in a line: ELISA, 1 ug/ml Fab on coated antigen; grade of signal to background (+ 2-3, ++ 3-5, +++ >5). As for the experimental part:
(§3) For the ELISA 96-well plates pre-coated with streptavidin (Pierce, 15500) were coated over night at 4° C. with 1 μg/ml biotinylated protein. Wells coated with biotinylated TRAIL-Fc served as a reference. The next day plates were washed 3 times with PBST, treated with blocking reagent, and washed again 3 times with PBST. 100 μl of purified Fabs (1 μg/ml) were added and incubated for 1 h at r.t. After washing 3 times with PBST, an anti-hIgG (Fab-specific) coupled to HRP (1:2500 diluted; Sigma; A 0293) was added and incubated for 1 h at Lt. Color reaction was developed by addition of 50 μl TMB (Invitrogen, 2023) and stopped after 5-15 min by adding 50 μl H₂SO₄ (Merck, 1120801000). Colorimetric reaction was recorded at […] in a plate reader (Tecan). Wells containing TRAIL-Fc were used as background values and the signal to background ratios were calculated as summarized in Table 4.
On to B7, for which the “ELISA signal to background ratio” value was 3 to 5 ratio.

In the case of B8, the “ELISA signal to background ratio” value was over 5 ratio.

With B9, the “ELISA signal to background ratio” value was over 5 ratio.

The next assay concerns the target T7, mFGFR2β-Fc (IIIb) (murine, UniProt P21803-2 22-263, limits assumed, biotinylated with biotin-LC-NHS).
T7 construct: Bought, R&D Systems 708-MF
Described as above. How it is done:
as §3
For B7, the “ELISA signal to background ratio” value was over 5 ratio.

Consider B8, for which the “ELISA signal to background ratio” value is over 5 ratio.

Regarding B9, the “ELISA signal to background ratio” value is over 5 ratio.

The next assay has as its target T2, hFGFR2α-Fc (IIIb). The description is as above. As for the experimental part: as §3
Turning to B7, the “ELISA signal to background ratio” value was over 5 ratio.

With B8, the “ELISA signal to background ratio” value was over 5 ratio.

In the case of B9, the “ELISA signal to background ratio” value was over 5 ratio.

For a further assay, the target named is T6, recombinant human FGFR2 (Met 1-Glu 377) …. Briefly: protein binding ELISA; against TPP-1415.
From the text: as §1, §2
Turning to B1, the “fold EC50 reduction” value amounted to 37 fold.

In the case of B2, the “fold EC50 reduction” value amounted to 35 fold.

Turning to B3, the “fold EC50 reduction” value stood at 12 fold.

Turning to B4, the “fold EC50 reduction” value worked out at 28 fold.

Consider B5, for which the “fold EC50 reduction” value was determined as 13 fold.

With B6, the “fold EC50 reduction” value was 3.8 fold.

The target of another assay is T3, hFGFR4-Fc. Briefly: ELISA on coated biotinylated Fc fusion. As for the experimental part:
as §3
Turning to B7, the binding result is listed as “no binding”.

B8: the binding result is “no binding”.

As for B9, the binding result is listed as “no binding”.

A further assay deals with T4, hFGFR1β-Fc (IIIc). The experiment in a line: ELISA on coated biotinylated Fc fusion. As for the experimental part:
as §3
On to B7, for which the binding result is “no binding”.

Regarding B8, the binding result is “no binding”.

B9: the binding result is reported as “no binding”.

A further assay has as its target T5, hFGFR3-Fc (IIIb). The experiment in a line: ELISA on coated biotinylated Fc fusion. As for the experimental part:
as §3
For B7, the binding result is given as “no binding”.

As for B8, the binding result is on record as “no binding”.

In the case of B9, the binding result is “no binding”.
